{"source": "patent US20130011375A1", "about": "(published 2013)", "binders": {"B1": {"name": "I4F8 (TCR, V domains shown)", "Valpha": "AQSVTQPDARVTVSEGASLQLRCKYSYFGTPYLFWYVQYPRQGLQLLLKYYPGDPVVQGVNGFEAEFSKSNSSFHLRKASVHWSDWAVYFCAVSNMGYKLTFGTGTSLLVDP", "Vbeta": "DPKIIQKPKYLVAVTGSEKILICEQYLGHNAMYWYRQSAKKPLEFMFSYSYQKLMDNQTASSRFQPQSSKKNHLDLQITALKPDDSATYFCASSQEMGGALEQYFGPGTRLTVL"}, "B2": {"name": "I4G7 alpha chain with I4G7 beta chain2 (TCR, V domains shown)", "Valpha": "AQSVTQPDARVTVSEGASLQLRCKYSYFGTPYLFWYVQYPRQGLQLLLKYYPGDPVVQGVNGFEAEFSKSNSSFHLRKASVHWSDWAVYFCAVSRDTNTGKLTFGDGTVLTVKP", "Vbeta": "EAAVTQSPRNKVTVTGGNVTLSCRQTNSHNYMYWYRQDTGHGLRLIHYSYGAGNLRIGDVPDGYKATRTTQEDFFLLLELASPSQTSLYFCASSDYRDSGNTLYFGEGSRLIVV"}, "B3": {"name": "I8A4 (TCR, V domains shown)", "Valpha": "LAKTTQPPSMEAYEGQEVNVSCSHTNIATSEYIYWYRQVPHQGPQFIIQGYKDYVVNEVASLFISADRKLSTLSLPWVSLRDAAVYYCIVTDMETGGYKVVFGSGTRLLVSP", "Vbeta": "EAAVTQSPRNKVAVTGGKVTLSCNQTNNHNNMYWYRQDTGHGLRLIHYSYGAGSTEKGDIPDGYKASRPSQENFSLILELATPSQTSVYFCASASTGASSYEQYFGPGTRLTVL"}, "B4": {"name": "I8H4 (TCR, V domains shown)", "Valpha": "AQKVTQTQTSISVVEKTTVTMDCVYETRDSSYFLFWYKQTASGEIVFLIRQDSYKKENATVGHYSLNFQKPKSSIGLIITATQIEDSAVYFCAMREITGNTGKLIFGLGTTLQVQP", "Vbeta": "EAAVTQSPRNKVTVTGGNVTLSCRQTNSHNYMYWYRQDTGHGLRLIHYSYGAGNLRIGDVPDGYKATRTTQEDFFLLLELASPSQTSLYFCASSDALGGEDAEQFFGPGTRLTVL"}, "B5": {"name": "I4G7 alpha chain with I4G7 beta chain1 (TCR, V domains shown)", "Valpha": "AQSVTQPDARVTVSEGASLQLRCKYSYFGTPYRIEFSGREFALLFWYVQYPRQGLQLLLKYYPGDPVVQGVNGFEAEFSKSNSSFHLRKASVHWSDWAVYFCAVSRDTNTGKLTFGDGTVLTVKP", "Vbeta": "EAAVTQSPRNKVAVTGGKVTLSCNQTNNHNNMGELNLAAANSPLYWYRQDTGHGLRLIHYSYVADSTEKGDIPDGYKASRPSQENFSLILELASLSQTAVYFCASSGGLGGHTLYFGAGTRLSVL"}, "B6": {"name": "TCR-69 (TCR, V domains shown)", "Valpha": "LAKTTQPPSMEAYEGQEVNVSCSHTNIATSEYIYWYRQVPHQGPQFIIQGYKDYVVNEVASLFISADRKLSTLSLPWVSLRDAAVYYCIVTDLGITGNTGKLIFGLGTTLQVQP", "Vbeta": "EAAVTQSPRNKVAVTGGKVTLSCNQTNNHNNMYWYRQDTGHGLRLIHYSYGAGSTEKGDIPDGYKASRPSQENFSLILELATPSQTSVYFCASGDEGYNSPLYFAAGTRLTVT"}, "B7": {"name": "TCR-19 (TCR, V domains shown)", "Valpha": "GEKVEQHQSTLSVREGDSAVINCTYTDTASSYFPWYKQEAGKSLHFVIDIRSNVDRKQSQRLTVLLDKKAKRFSLHITATQPEDSAIYFCAASLITGNTGKLIFGLGTTLQVQP", "Vbeta": "GGIITQTPKFLIGQEGQKLTLKCQQNFNHDTMYWYRQDSGKGLRLIYYSITENDLQKGDLSEGYDASREKKSSFSLTVTSAQKNEMAVFLCASSLTANTEVFFGKGTRLTVV"}}, "data": [{"target": "T1, Flu neuraminidase (Flu-NA231) peptide on HLA-A*02:01 (human)", "T1 peptide": "CVNGSCFTV", "assay": "cytokine release", "values": [{"binder": "B1", "binding result": "no recognition"}, {"binder": "B2", "binding result": "no recognition"}, {"binder": "B3", "binding result": "no recognition"}, {"binder": "B4", "binding result": "no recognition"}, {"binder": "B5", "binding result": "no recognition"}]}, {"target": "T2, HCV NS3 1073 (genotype 4) peptide on HLA-A*02:01 (human)", "T2 peptide": "AVNGVMWTV", "assay": "cytokine release", "values": [{"binder": "B1", "binding result": "no recognition"}, {"binder": "B2", "binding result": "no recognition"}, {"binder": "B3", "binding result": "no recognition"}, {"binder": "B4", "binding result": "no recognition"}, {"binder": "B5", "binding result": "no recognition"}]}, {"target": "T3, HCV NS3 peptide on HLA-A*02:01 (human)", "T3 peptide": "KLVALGINAV", "assay": "cytokine release", "values": [{"binder": "B1", "binding result": "no recognition"}, {"binder": "B2", "binding result": "no recognition"}, {"binder": "B3", "binding result": "no recognition"}, {"binder": "B4", "binding result": "no recognition"}, {"binder": "B5", "binding result": "no recognition"}]}, {"target": "T4, HCV NS3 1073-1081, alanine analogue 1080-Ala (position 8) peptide on HLA-A*02:01 (human)", "T4 peptide": "CINGVCWAV", "assay": "cytokine release", "values": [{"binder": "B1", "binding result": "recognises"}, {"binder": "B2", "binding result": "recognises"}, {"binder": "B4", "binding result": "recognises"}, {"binder": "B5", "binding result": "recognises"}]}, {"target": "T5, HCV NS3 1073 (genotype 6) peptide on HLA-A*02:01 (human)", "T5 peptide": "AINGVMWTV", "assay": "cytokine release", "values": [{"binder": "B1", "binding result": "no recognition"}, {"binder": "B2", "binding result": "no recognition"}, {"binder": "B3", "binding result": "no recognition"}, {"binder": "B4", "binding result": "no recognition"}, {"binder": "B5", "binding result": "no recognition"}]}, {"target": "T6, HCV NS3 1073 (genotype 2) peptide on HLA-A*02:01 (human)", "T6 peptide": "TISGVLWTV", "assay": "cytokine release", "values": [{"binder": "B1", "binding result": "no recognition"}, {"binder": "B2", "binding result": "no recognition"}, {"binder": "B3", "binding result": "no recognition"}, {"binder": "B4", "binding result": "no recognition"}, {"binder": "B5", "binding result": "no recognition"}]}, {"target": "T7, HCV NS5 (NS5 2221) peptide on HLA-A*02:01 (human)", "T7 peptide": "SPDADLIEANL", "assay": "cytokine release", "values": [{"binder": "B1", "binding result": "no recognition"}, {"binder": "B2", "binding result": "no recognition"}, {"binder": "B3", "binding result": "no recognition"}, {"binder": "B4", "binding result": "no recognition"}, {"binder": "B5", "binding result": "no recognition"}]}, {"target": "T8, HCV NS3 (genotype 1a) peptide on HLA-A*02:01 (human/mouse chimera)", "T8 peptide": "CINGVCWTV", "assay": "cytokine release", "values": [{"binder": "B4", "binding result": "recognises"}]}, {"target": "T9, HCV NS3 1073 (genotype 5) peptide on HLA-A*02:01 (human)", "T9 peptide": "CINGVMWTV", "assay": "cytokine release", "values": [{"binder": "B1", "binding result": "no recognition"}, {"binder": "B2", "binding result": "no recognition"}, {"binder": "B3", "binding result": "no recognition"}, {"binder": "B4", "binding result": "no recognition"}, {"binder": "B5", "binding result": "no recognition"}]}, {"target": "T10, HCV NS3 1073-1081, alanine analogue 1073-Ala (position 1) peptide on HLA-A*02:01 (human)", "T10 peptide": "AINGVCWTV", "assay": "cytokine release", "values": [{"binder": "B1", "binding result": "recognises"}, {"binder": "B2", "binding result": "recognises"}, {"binder": "B3", "binding result": "recognises"}, {"binder": "B4", "binding result": "recognises"}, {"binder": "B5", "binding result": "recognises"}]}, {"target": "T11, HCV NS3 1073 (genotype 3) peptide on HLA-A*02:01 (human)", "T11 peptide": "TIGGVMWTV", "assay": "cytokine release", "values": [{"binder": "B1", "binding result": "no recognition"}, {"binder": "B2", "binding result": "no recognition"}, {"binder": "B3", "binding result": "no recognition"}, {"binder": "B4", "binding result": "no recognition"}, {"binder": "B5", "binding result": "no recognition"}]}, {"target": "T12, HCV NS3 1073-1081, alanine analogue 1074-Ala (position 2) peptide on HLA-A*02:01 (human)", "T12 peptide": "CANGVCWTV", "assay": "cytokine release", "values": [{"binder": "B1", "binding result": "recognises"}, {"binder": "B4", "binding result": "recognises"}]}, {"target": "T13, HCV NS3 1073-1081, alanine analogue 1081-Ala (position 9) peptide on HLA-A*02:01 (human)", "T13 peptide": "CINGVCWTA", "assay": "cytokine release", "values": [{"binder": "B1", "binding result": "recognises"}, {"binder": "B2", "binding result": "recognises"}, {"binder": "B4", "binding result": "recognises"}, {"binder": "B5", "binding result": "recognises"}]}, {"target": "T14, HCV NS3 1073-1081, alanine analogue 1078-Ala (position 6) peptide on HLA-A*02:01 (human)", "T14 peptide": "CINGVAWTV", "assay": "cytokine release", "values": [{"binder": "B1", "binding result": "recognises"}, {"binder": "B2", "binding result": "recognises"}, {"binder": "B4", "binding result": "recognises"}, {"binder": "B5", "binding result": "recognises"}]}, {"target": "T15, HCV NS3 (genotype 1b) peptide on HLA-A*02:01 (human)", "T15 peptide": "CVNGVCWTV", "assay": "cytokine release", "values": [{"binder": "B1", "binding result": "recognises"}, {"binder": "B2", "binding result": "recognises"}, {"binder": "B3", "binding result": "recognises"}, {"binder": "B4", "binding result": "recognises"}, {"binder": "B5", "binding result": "recognises"}]}, {"target": "T16, HCMV pp65 (pp65 495) peptide on HLA-A*02:01 (human)", "T16 peptide": "NLVPMVATV", "assay": "cytokine release", "values": [{"binder": "B1", "binding result": "no recognition"}, {"binder": "B2", "binding result": "no recognition"}, {"binder": "B3", "binding result": "no recognition"}, {"binder": "B4", "binding result": "no recognition"}, {"binder": "B5", "binding result": "no recognition"}]}, {"target": "T17, HCV NS5 peptide on HLA-A*02:01 (human)", "T17 peptide": "VLTDFKTWL", "assay": "cytokine release", "values": [{"binder": "B6", "binding result": "recognises"}, {"binder": "B1", "binding result": "no recognition"}, {"binder": "B2", "binding result": "no recognition"}, {"binder": "B3", "binding result": "no recognition"}, {"binder": "B4", "binding result": "no recognition"}, {"binder": "B7", "binding result": "recognises"}, {"binder": "B5", "binding result": "no recognition"}]}, {"target": "T12, HCV NS3 1073-1081, alanine analogue …", "assay": "T cell clone or line", "units": {"EC50 of peptide": "µg/mL"}, "values": [{"binder": "B2", "EC50 of peptide": 0.08}, {"binder": "B5", "EC50 of peptide": 0.08}]}, {"target": "T18, HCV NS3 (genotype 1a) peptide on HLA-A*02:01 (human)", "T18 peptide": "CINGVCWTV", "assay": "T cell clone or line", "units": {"peptide concentration at which reactive": "ng/mL", "EC50 of peptide": "µg/mL"}, "values": [{"binder": "B1", "peptide concentration at which reactive": "< 100"}, {"binder": "B2", "peptide concentration at which reactive": "< 100"}, {"binder": "B3", "EC50 of peptide": "≤ 0.4"}, {"binder": "B5", "peptide concentration at which reactive": "< 100"}]}, {"target": "T18, HCV NS3 (genotype 1a) peptide on …", "assay": "multimer staining", "values": [{"binder": "B4", "binding result": "recognises"}]}]}
